How the values were obtained:
[1] = target: GPC3ΔGPI-FLAG重组蛋白 (Homo sapiens (Human)) (UniProt P51654); test: ELISA on coated GPC3ΔGPI-FLAG after 2 h treatment of the antibody at pH 2
[2] = target: GPC3ΔGPI-FLAG重组蛋白 (Homo sapiens (Human)) (UniProt P51654); test: ELISA on coated GPC3ΔGPI-FLAG after 2 h treatment of the antibody at pH 10
[3] = target: mCherry-GPC3 (on stably expressing HEK293T cells) (UniProt P51654); test: immunofluorescence colocalisation on HEK293T cells expressing mCherry-GPC3

抗原结合能力下降 (A450 against pH 7), antibody treated at pH 2 [1] [%]	抗原结合能力下降 (A450 against pH 7), antibody treated at pH 10 [2] [%]	皮尔森相关系数 (Pearson correlation of mCherry and Alexa Fluor 488 signals) [3]	Molecule
47.9	28.2		HN3-hFc融合抗体 (Fc fusion)
26.1	14.4	0.94	纳米抗体G10 (G10-His, GPC3 nanobody) (VHH, not shown: small tags and cut ends) VHH: QVQLVESGGALVQPGGSLRLSCAASGMTGIFWRLRWYRQAPGKEREWVCGISQLPTPASYEDSVKGRFTCSRDDARNTVYLQLNSLKPEDTAVYYCAAANVLPGLPAELPIYWGQGTQVTVSS

Reference: CN111848803A
